Earlier results as cited in patent publication US10076577B2, “Compositions and methods for treating endocrine, gastrointestinal or autoimmune disorders” (priority 2010, dated 2018).

Details: in vivo

In the case of Glucagon-like peptide-1 [GLP-1], the “half-life in the blood” value is listed as “a few minutes”.
